Read-outs that look alike come from different tables or passages of the source.

What all share (assay): enzyme inhibition kinetics
Assay [1] addresses factor XIa catalytic domain K170A (human) (UniProt P03951).
The target in assay [2] is factor XIa catalytic domain K175A (human).
Assay [3] has as its target factor XIa catalytic domain K179A (human).
For assay [4], the target named is factor XIa catalytic domain R171A (human) (UniProt P03951).
Assay [5] concerns the target factor XIa catalytic domain R173A (human) (UniProt P03951).
In assay [6] the target is full-length factor XIa with a Gln substitution for Arg-37 (human).
In assay [7] the target is factor XIa catalytic domain K170A (human) (UniProt P03951). This is another data set of the same source.
Assay [8] addresses factor XIa catalytic domain K175A (human). This is another data set of the same source.
In assay [9] the target is factor XIa catalytic domain K179A (human). This is another data set of the same source.
Assay [10] deals with factor XIa catalytic domain R171A (human) (UniProt P03951). The source holds these as a separate data set.
The target in assay [11] is factor XIa catalytic domain R173A (human) (UniProt P03951). The source holds these as a separate data set.
Assay [12] has as its target full-length factor XIa autolysis loop variant fXIa-144-149A (human).
Assay [13] has as its target full-length factor XIa with a Gln substitution for Arg-37 (human). The source holds these as a separate data set.
The target in assay [14] is factor XIa catalytic domain K170A (human) (UniProt P03951). The source holds these as a separate data set.
Assay [15] addresses factor XIa catalytic domain K175A (human). This is another data set of the same source.
In assay [16] the target is factor XIa catalytic domain K179A (human). The source holds these as a separate data set.
In assay [17] the target is factor XIa catalytic domain R171A (human) (UniProt P03951). This is another data set of the same source.
Assay [18] concerns the target wild type recombinant factor XIa, full length (human).

On to “antithrombin (from UniProt P01008 33-464) (natural protein)”, for which the k2 (second-order inhibition rate constant) in assay [1] was 610 M⁻¹ s⁻¹; in assay [2], 550 M⁻¹ s⁻¹; in assay [3], 680 M⁻¹ s⁻¹; in [4], 1200 M⁻¹ s⁻¹; in assay [5], 560 M⁻¹ s⁻¹; in assay [6], 2620 M⁻¹ s⁻¹. Moreover, the k2 (second-order inhibition rate constant) came to 230 M⁻¹ s⁻¹ in assay [7]; 180 M⁻¹ s⁻¹ in assay [8]; 250 M⁻¹ s⁻¹ in [9]; 490 M⁻¹ s⁻¹ in assay [10]; 210 M⁻¹ s⁻¹ in [11]; 1550 M⁻¹ s⁻¹ in assay [13]. The k2 (second-order inhibition rate constant) in assay [14] is 12000 M⁻¹ s⁻¹; in assay [15] it was 17000 M⁻¹ s⁻¹; in [16], 50000 M⁻¹ s⁻¹; in [17] it was 18000 M⁻¹ s⁻¹; in assay [18], 223000 M⁻¹ s⁻¹. For the same substance, in [12], the k2 (second-order inhibition rate constant), maximal amounted to 200000 M⁻¹ s⁻¹.

The values above are taken from paper PMC2654577.
